According to paper PMC11487190 (2024):

Key:
30S ribosomal subunit = assay: toeprint (primer extension); conditions: tRNA-fMet, with TPP; Toeprint buffer, salt, pH and temperature not given in the material; scale: fold decrease of toeprint efficiency vs no TPP
[1] = system: semi-synthetic tbpA aptamer (residues 1-89 + 3' anchoring sequence) (RNA, riboswitch, azide-modified U at 14 (clicked to Cy5)) GUUCUCAACGGGGUGCCACGCGUACGCGUGCGCUGAGAAAAUACCCGUCGAACCUGAUCCGGAUAACGCCGGCGAAGGGAUUUGAGGCUCCCCGGCCCCCCGGCC; assay: smFRET (TIRF); conditions: 20 mM MgCl2, 20 mM NaCl; 1 mM TPP; folded state 14% to 48%; Tris-HCl buffer, pH 7.5

Row | binding [1] | Molecule | binding signal (30S ribosomal subunit)
1 | – | tbpA riboswitch nascent transcript (toeprint) | 2.2
2 | yes | Cc1ncc(C[n+]2csc(CCOP(=O)(O)OP(=O)(O)O)c2C)c(N)n1 | –
